The test system of the series is Escherichia coli TOP10. Briefly: shrunken log2 fold change of peptide-encoding DNA abundance (4.5 h post-induction vs induction); higher = less antimicrobial activity (less host growth inhibition). Conditions: time post-induction: 4.5 h; library: site-saturation at positions 5, 18, 19, 20.
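Further: peptides expressed intracellularly from a pBAD plasmid library in pooled LB shake-flask culture, induced with 0.3% L-arabinose, DNA abundance read by NGS, three biological replicates, DESeq2 with apeglm shrinkage.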

In the case of RRIRFRPPRLPRPRPRPLFWPRP, the “shrunken log2 fold change” value is 0.201.
Regarding RRIRKRPPRLPRPRPRPSSYPRP, the “shrunken log2 fold change” value was 0.0295.
Next, RRIRSRPPRLPRPRPRPFGSPRP: -0.178; RRIRQRPPRLPRPRPRPEIVPRP: 0.143.
Next, RRIRSRPPRLPRPRPRPQHLPRP: -0.372.
With RRIRARPPRLPRPRPRPISMPRP the figure was 0.0208; with RRIRWRPPRLPRPRPRPNPNPRP, 0.055.
For RRIRGRPPRLPRPRPRPLCVPRP, the “shrunken log2 fold change” value amounted to 0.689.
With RRIRARPPRLPRPRPRPWSCPRP the figure was -0.045; with RRIRIRPPRLPRPRPRPYCWPRP, -0.185; with RRIRRRPPRLPRPRPRPGQQPRP, 0.119.
For the sequence RRIRVRPPRLPRPRPRPMLMPRP, the “shrunken log2 fold change” value was 0.00342.
With RRIRGRPPRLPRPRPRPIHCPRP the figure was -0.0922; with RRIRDRPPRLPRPRPRPPIRPRP, 0.173.
For RRIRDRPPRLPRPRPRPAGIPRP, the “shrunken log2 fold change” value was -0.00461.
Consider RRIRTRPPRLPRPRPRPSSRPRP, for which the “shrunken log2 fold change” value is 0.543.
As for RRIRPRPPRLPRPRPRPAGLPRP, the “shrunken log2 fold change” value worked out at 0.279.
With RRIRTRPPRLPRPRPRPASYPRP the figure was -0.347; with RRIRRRPPRLPRPRPRPAYSPRP, 0.0936; with RRIRERPPRLPRPRPRPLNRPRP, 0.0599.
For the sequence RRIRERPPRLPRPRPRPNGWPRP, the “shrunken log2 fold change” value is -0.00266.
As for RRIRYRPPRLPRPRPRPNTMPRP, the “shrunken log2 fold change” value was -1.1.
On to RRIRTRPPRLPRPRPRPEARPRP, for which the “shrunken log2 fold change” value was determined as 0.552.
Turning to RRIRYRPPRLPRPRPRPETAPRP, the “shrunken log2 fold change” value came out at 0.00332.
With RRIRSRPPRLPRPRPRPRRMPRP the figure was 0.141.
With RRIRDRPPRLPRPRPRPVGYPRP, the “shrunken log2 fold change” value was 0.0934.
For RRIRLRPPRLPRPRPRPENFPRP, the “shrunken log2 fold change” value amounted to 0.0173.
Turning to RRIRQRPPRLPRPRPRPAVVPRP, the “shrunken log2 fold change” value worked out at 0.242.
Next, RRIRNRPPRLPRPRPRPDHLPRP: -0.0163; RRIRNRPPRLPRPRPRPHDFPRP: 0.137.
Take RRIRGRPPRLPRPRPRPKQAPRP: the “shrunken log2 fold change” value stood at 0.865.
Regarding RRIRARPPRLPRPRPRPELDPRP, the “shrunken log2 fold change” value was found to be 1.78.
Next, RRIRLRPPRLPRPRPRPKFIPRP: -0.304; RRIRGRPPRLPRPRPRPKWCPRP: 0.113.
Take RRIRGRPPRLPRPRPRPEAGPRP: the “shrunken log2 fold change” value is 1.21.
With RRIRLRPPRLPRPRPRPAWTPRP the figure was 0.218; with RRIRERPPRLPRPRPRPSKFPRP, -0.199.
With RRIRYRPPRLPRPRPRPESHPRP the figure was -0.226; with RRIRGRPPRLPRPRPRPDCQPRP, 0.662; with RRIRVRPPRLPRPRPRPETIPRP, 0.0608.
As to RRIRDRPPRLPRPRPRPMVCPRP, the “shrunken log2 fold change” value was found to be 0.141.
Next, RRIRHRPPRLPRPRPRPMQIPRP: 0.093; RRIRARPPRLPRPRPRPGEKPRP: 0.333; RRIRVRPPRLPRPRPRPTCQPRP: -0.035.
With RRIRDRPPRLPRPRPRPPQKPRP the figure was -0.0517; with RRIRSRPPRLPRPRPRPNWSPRP, -0.249; with RRIRFRPPRLPRPRPRPHHIPRP, -0.822.
With RRIRSRPPRLPRPRPRPMPFPRP the figure was -0.0591.
Regarding RRIRPRPPRLPRPRPRPIVPPRP, the “shrunken log2 fold change” value is -0.208.
RRIRCRPPRLPRPRPRPRKFPRP: the “shrunken log2 fold change” value was -0.00353.
As for RRIRVRPPRLPRPRPRPQGRPRP, the “shrunken log2 fold change” value is -0.0469.
As for RRIRRRPPRLPRPRPRPMHYPRP, the “shrunken log2 fold change” value is 0.117.
With RRIRPRPPRLPRPRPRPDCYPRP the figure was -0.0771.
With RRIRQRPPRLPRPRPRPSFCPRP, the “shrunken log2 fold change” value came to 0.462.
With RRIRDRPPRLPRPRPRPFVHPRP the figure was -0.0617; with RRIRDRPPRLPRPRPRPFSCPRP, 0.171.
Next, RRIRMRPPRLPRPRPRPQYGPRP: 0.015.
In the case of RRIRGRPPRLPRPRPRPLNVPRP, the “shrunken log2 fold change” value is -0.095.
For RRIRWRPPRLPRPRPRPTHRPRP, the “shrunken log2 fold change” value came to 0.8.
Consider RRIRTRPPRLPRPRPRPKLFPRP, for which the “shrunken log2 fold change” value was -0.0805.
With RRIRTRPPRLPRPRPRPFPVPRP the figure was -0.177; with RRIRMRPPRLPRPRPRPSMTPRP, 2.18; with RRIRVRPPRLPRPRPRPMQAPRP, -0.0023.
RRIRLRPPRLPRPRPRPIMAPRP: the “shrunken log2 fold change” value is 0.0391.
As for RRIRYRPPRLPRPRPRPHLQPRP, the “shrunken log2 fold change” value was -0.388.
As to RRIRQRPPRLPRPRPRPDYYPRP, the “shrunken log2 fold change” value is -0.0251.
For the sequence RRIRWRPPRLPRPRPRPNWPPRP, the “shrunken log2 fold change” value came out at 0.214.
Next, RRIRIRPPRLPRPRPRPHRVPRP: -0.24.
Turning to RRIRGRPPRLPRPRPRPRTQPRP, the “shrunken log2 fold change” value was found to be 0.826.
In the case of RRIRYRPPRLPRPRPRPIVWPRP, the “shrunken log2 fold change” value was determined as 0.0267.
Next, RRIRVRPPRLPRPRPRPWAGPRP: 0.116.
As for RRIRLRPPRLPRPRPRPWCPPRP, the “shrunken log2 fold change” value came out at 0.0721.
Next, RRIRMRPPRLPRPRPRPWGCPRP: 0.311; RRIRGRPPRLPRPRPRPRAYPRP: 0.338.
In the case of RRIRYRPPRLPRPRPRPLEKPRP, the “shrunken log2 fold change” value is 0.0601.
Next, RRIRMRPPRLPRPRPRPVEGPRP: -0.000687.
With RRIRVRPPRLPRPRPRPCEYPRP the figure was -0.00327; with RRIRSRPPRLPRPRPRPFVWPRP, -0.0361; with RRIRSRPPRLPRPRPRPDGKPRP, 0.00369.
Turning to RRIRNRPPRLPRPRPRPYPWPRP, the “shrunken log2 fold change” value is -0.0963.
Next, RRIRQRPPRLPRPRPRPQERPRP: -0.00247.
Next, RRIRPRPPRLPRPRPRPLIMPRP: -0.131; RRIRIRPPRLPRPRPRPICGPRP: -0.161.
With RRIRRRPPRLPRPRPRPYHEPRP, the “shrunken log2 fold change” value turned out to be 0.016.
Next, RRIRDRPPRLPRPRPRPYPGPRP: -0.0524.
As to RRIRWRPPRLPRPRPRPNIFPRP, the “shrunken log2 fold change” value is 0.0551.
With RRIRMRPPRLPRPRPRPTGCPRP the figure was 0.588; with RRIRVRPPRLPRPRPRPRYGPRP, -0.392; with RRIRPRPPRLPRPRPRPKVGPRP, 0.172.
Take RRIRLRPPRLPRPRPRPFKLPRP: the “shrunken log2 fold change” value is -0.294.
With RRIRPRPPRLPRPRPRPCRNPRP the figure was -0.176.

The values above are taken from the supplement of paper PMC9112550, “Optimization of the antimicrobial peptide Bac7 by deep mutational scanning” (BMC Biology, 2022).
